Target: Sulfolobus islandicus Orc1-1 Walker B mutant E147A (ATP-bound) (Sulfolobus islandicus)
Assay: AUC

stoichiometry N: 2
Substance: Sulfolobus islandicus Orc1-1 Walker B mutant E147A (ATP-bound) (natural protein)

From PMC3607249
